Measurements reported in patent EP4803151A2 (Lepu Biopharma Co., Ltd., dated 2026).

T1: ECD of human DLL3 over-expressed on HEK293 cells (human, UniProt Q9NYJ7 27-492)
T1 construct: extracellular domain; also called HEK293-hDLL3; human DLL3 expressed on HEK293 cells
T1 sequence (looked up): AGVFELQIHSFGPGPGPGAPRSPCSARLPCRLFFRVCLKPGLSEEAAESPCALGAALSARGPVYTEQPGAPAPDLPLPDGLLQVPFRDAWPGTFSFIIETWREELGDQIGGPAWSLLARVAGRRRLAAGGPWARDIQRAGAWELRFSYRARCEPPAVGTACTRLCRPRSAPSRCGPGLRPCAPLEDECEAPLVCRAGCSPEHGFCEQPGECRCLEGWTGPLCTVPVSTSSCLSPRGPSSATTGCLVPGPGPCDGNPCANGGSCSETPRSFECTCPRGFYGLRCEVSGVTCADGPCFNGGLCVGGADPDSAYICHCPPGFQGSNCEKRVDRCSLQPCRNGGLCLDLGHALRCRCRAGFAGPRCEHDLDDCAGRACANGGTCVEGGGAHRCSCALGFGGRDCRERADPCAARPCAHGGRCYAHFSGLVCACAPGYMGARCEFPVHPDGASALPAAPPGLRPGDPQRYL

T2: human DLL3 endogenously expressed on SCLC tumor cell lines SHP77 and NCI-H82 (human, UniProt Q9NYJ7 27-618)
T2 construct: whole, on cells; also called human DLL3 expressed on tumor cells
T2 sequence (looked up): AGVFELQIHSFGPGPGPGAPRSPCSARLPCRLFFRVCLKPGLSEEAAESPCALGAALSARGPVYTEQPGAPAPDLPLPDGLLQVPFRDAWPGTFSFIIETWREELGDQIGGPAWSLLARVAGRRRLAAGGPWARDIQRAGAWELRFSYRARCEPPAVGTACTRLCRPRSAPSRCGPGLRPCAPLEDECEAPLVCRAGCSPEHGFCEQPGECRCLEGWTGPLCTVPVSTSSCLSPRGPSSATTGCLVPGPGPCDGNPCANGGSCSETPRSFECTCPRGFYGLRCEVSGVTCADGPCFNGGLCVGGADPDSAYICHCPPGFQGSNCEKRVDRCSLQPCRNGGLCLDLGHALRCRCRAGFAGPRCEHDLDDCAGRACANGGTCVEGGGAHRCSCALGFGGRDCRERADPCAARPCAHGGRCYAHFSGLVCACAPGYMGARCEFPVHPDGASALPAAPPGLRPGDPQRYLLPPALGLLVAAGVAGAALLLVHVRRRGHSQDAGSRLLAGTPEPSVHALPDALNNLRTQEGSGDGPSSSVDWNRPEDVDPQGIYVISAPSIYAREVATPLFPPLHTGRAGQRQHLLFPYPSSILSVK

T3: ECD of human DLL3 protein fused with his tag (Acro Bio, Cat. No. DL3-H52H4) (human, UniProt Q9NYJ7 27-492)
T3 construct: range 27-492; Bought protein; also called hDLL3-his; human DLL3-his protein; not shown: his tag
T3 sequence (looked up): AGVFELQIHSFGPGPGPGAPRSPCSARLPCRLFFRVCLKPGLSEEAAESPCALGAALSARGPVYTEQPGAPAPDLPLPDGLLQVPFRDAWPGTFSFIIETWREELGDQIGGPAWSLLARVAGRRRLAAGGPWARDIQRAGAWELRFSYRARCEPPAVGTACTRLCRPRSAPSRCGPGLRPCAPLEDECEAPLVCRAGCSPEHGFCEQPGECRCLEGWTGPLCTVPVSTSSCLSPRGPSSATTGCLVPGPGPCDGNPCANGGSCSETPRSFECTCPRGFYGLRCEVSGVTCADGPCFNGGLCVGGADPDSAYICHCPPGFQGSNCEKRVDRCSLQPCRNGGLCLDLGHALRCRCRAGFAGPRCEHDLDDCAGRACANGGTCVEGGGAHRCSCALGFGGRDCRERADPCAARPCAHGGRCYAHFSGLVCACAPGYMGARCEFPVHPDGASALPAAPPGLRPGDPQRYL


Assays:
[1] = molecular target: T1, ECD of human DLL3 over-expressed on …; test: flow cytometry on HEK293-hDLL3 cells
[2] = molecular target: T2, human DLL3 endogenously expressed on …; test: flow cytometry on SHP77 cells
[3] = molecular target: T3, ECD of human DLL3 protein fused with …; test: ELISA, hDLL3-his coated

binding result [1]	binding result [2]	binding result [3]	Binder
binds	binds		310P3C5-z15p18 PTM removed humanized antibody (antibody, V domains shown, variable regions fused to the constant region of human IgG1) VH: QVQLVQSGAEVKKPGASVKVSCKASGYTFTDFYMNWVKQAPGQGLEWIGDANPNRGGTTHNPRFKGRATLTVDKSASTAYMELRSLRSEDTAVYYCARGGLPGDFDYWGQGTTVTVSS VL: DIQMTQSPSSLSASVGDRVTITCKASEDIYNRLAWYQQKPGKAPKLLISGVTSLETGVPSRFSGSGSGTDFTFTISSLQPEDIATYYCQQYWSFPWTFGGGTKVEIK
		binds	310P3C5-z2 humanized antibody (antibody, human IgG1, kappa, V domains shown, HU-VH1-2 with HU-VL1-1; human IgG1) VH: QVQLVQSGAEVKKPGASVKVSCKASGYTFTDFYMNWVRQAPGQGLEWIGDANPNNGGTTHNPRFKGRATMTTDTSTSTAYMELRSLRSDDTAVYYCARGGLPGDFDYWGQGTTVTVSS VL: DIQMTQSPSSVSASVGDRVTITCKASEDIYNRLAWYQQKPGKAPKLLIYGVTSLETGVPSRFSGSGSGTDFTLTISSLQPEDFATYYCQQYWSFPWTFGGGTKVEIKR
		binds	310P3C5-z13 humanized antibody (antibody, human IgG1, kappa, V domains shown, HU-VH1-1 with HU-VL2; human IgG1) VH: QVQLVQSGAEVKKPGASVKVSCKASGYTFTDFYMNWVRQAPGQGLEWMGDANPNNGGTTHNPRFKGRVTMTTDTSTSTAYMELRSLRSDDTAVYYCARGGLPGDFDYWGQGTTVTVSS VL: DIQMTQSPSSLSASVGDRVTITCKASEDIYNRLAWYQQKPGKAPKLLISGVTSLETGVPSRFSGSGSGTDFTFTISSLQPEDIATYYCQQYWSFPWTFGGGTKVEIKR
binds	binds		310P3C5-z15p19 PTM removed humanized antibody (antibody, V domains shown, variable regions fused to the constant region of human IgG1) VH: QVQLVQSGAEVKKPGASVKVSCKASGYTFTDFYMNWVKQAPGQGLEWIGDANPNVGGTTHNPRFKGRATLTVDKSASTAYMELRSLRSEDTAVYYCARGGLPGDFDYWGQGTTVTVSS VL: DIQMTQSPSSLSASVGDRVTITCKASEDIYNRLAWYQQKPGKAPKLLISGVTSLETGVPSRFSGSGSGTDFTFTISSLQPEDIATYYCQQYWSFPWTFGGGTKVEIK
binds	binds		310P3C5-z15p20 PTM removed humanized antibody (antibody, V domains shown, variable regions fused to the constant region of human IgG1) VH: QVQLVQSGAEVKKPGASVKVSCKASGYTFTDFYMNWVKQAPGQGLEWIGDANPNWGGTTHNPRFKGRATLTVDKSASTAYMELRSLRSEDTAVYYCARGGLPGDFDYWGQGTTVTVSS VL: DIQMTQSPSSLSASVGDRVTITCKASEDIYNRLAWYQQKPGKAPKLLISGVTSLETGVPSRFSGSGSGTDFTFTISSLQPEDIATYYCQQYWSFPWTFGGGTKVEIK
binds	binds		310P3C5-z15p21 PTM removed humanized antibody (antibody, V domains shown, variable regions fused to the constant region of human IgG1) VH: QVQLVQSGAEVKKPGASVKVSCKASGYTFTDFYMNWVKQAPGQGLEWIGDANPNYGGTTHNPRFKGRATLTVDKSASTAYMELRSLRSEDTAVYYCARGGLPGDFDYWGQGTTVTVSS VL: DIQMTQSPSSLSASVGDRVTITCKASEDIYNRLAWYQQKPGKAPKLLISGVTSLETGVPSRFSGSGSGTDFTFTISSLQPEDIATYYCQQYWSFPWTFGGGTKVEIK

Further lines, the binder ahead of its results:

Binder	binding result [1]	binding result [2]	binding result [3]
310P3C5-z15p10 PTM removed humanized antibody (antibody, V domains shown, variable regions fused to the constant region of human IgG1) VH: QVQLVQSGAEVKKPGASVKVSCKASGYTFTDFYMNWVKQAPGQGLEWIGDANPNAGGTTHNPRFKGRATLTVDKSASTAYMELRSLRSEDTAVYYCARGGLPGDFDYWGQGTTVTVSS VL: DIQMTQSPSSLSASVGDRVTITCKASEDIYNRLAWYQQKPGKAPKLLISGVTSLETGVPSRFSGSGSGTDFTFTISSLQPEDIATYYCQQYWSFPWTFGGGTKVEIK	binds	binds	
310P3C5-z7 humanized antibody (antibody, human IgG1, kappa, V domains shown, HU-VH1-3 with HU-VL1-2; human IgG1) VH: QVQLVQSGAEVKKPGASVKVSCKASGYTFTDFYMNWVRQAPGQGLEWIGDANPNNGGTTHNPRFKGRATLTVDTSTSTAYMELRSLRSDDTAVYYCARGGLPGDFDYWGQGTTVTVSS VL: DIQMTQSPSSVSASVGDRVTITCKASEDIYNRLAWYQQKPGKAPKLLISGVTSLETGVPSRFSGSGSGTDFTLTISSLQPEDFATYYCQQYWSFPWTFGGGTKVEIKR			binds
310P3C5-z3 humanized antibody (antibody, human IgG1, kappa, V domains shown, HU-VH1-3 with HU-VL1-1; human IgG1) VH: QVQLVQSGAEVKKPGASVKVSCKASGYTFTDFYMNWVRQAPGQGLEWIGDANPNNGGTTHNPRFKGRATLTVDTSTSTAYMELRSLRSDDTAVYYCARGGLPGDFDYWGQGTTVTVSS VL: DIQMTQSPSSVSASVGDRVTITCKASEDIYNRLAWYQQKPGKAPKLLIYGVTSLETGVPSRFSGSGSGTDFTLTISSLQPEDFATYYCQQYWSFPWTFGGGTKVEIKR			binds
310P3C5-z15p13 PTM removed humanized antibody (antibody, V domains shown, variable regions fused to the constant region of human IgG1) VH: QVQLVQSGAEVKKPGASVKVSCKASGYTFTDFYMNWVKQAPGQGLEWIGDANPNHGGTTHNPRFKGRATLTVDKSASTAYMELRSLRSEDTAVYYCARGGLPGDFDYWGQGTTVTVSS VL: DIQMTQSPSSLSASVGDRVTITCKASEDIYNRLAWYQQKPGKAPKLLISGVTSLETGVPSRFSGSGSGTDFTFTISSLQPEDIATYYCQQYWSFPWTFGGGTKVEIK	binds	binds	
310P3C5-z6 humanized antibody (antibody, human IgG1, kappa, V domains shown, HU-VH1-2 with HU-VL1-2; human IgG1) VH: QVQLVQSGAEVKKPGASVKVSCKASGYTFTDFYMNWVRQAPGQGLEWIGDANPNNGGTTHNPRFKGRATMTTDTSTSTAYMELRSLRSDDTAVYYCARGGLPGDFDYWGQGTTVTVSS VL: DIQMTQSPSSVSASVGDRVTITCKASEDIYNRLAWYQQKPGKAPKLLISGVTSLETGVPSRFSGSGSGTDFTLTISSLQPEDFATYYCQQYWSFPWTFGGGTKVEIKR			binds
310P3C5-z5 humanized antibody (antibody, human IgG1, kappa, V domains shown, HU-VH1-1 with HU-VL1-2; human IgG1) VH: QVQLVQSGAEVKKPGASVKVSCKASGYTFTDFYMNWVRQAPGQGLEWMGDANPNNGGTTHNPRFKGRVTMTTDTSTSTAYMELRSLRSDDTAVYYCARGGLPGDFDYWGQGTTVTVSS VL: DIQMTQSPSSVSASVGDRVTITCKASEDIYNRLAWYQQKPGKAPKLLISGVTSLETGVPSRFSGSGSGTDFTLTISSLQPEDFATYYCQQYWSFPWTFGGGTKVEIKR			binds
310P3C5-z11 humanized antibody (antibody, human IgG1, kappa, V domains shown, HU-VH1-3 with HU-VL1-3; human IgG1) VH: QVQLVQSGAEVKKPGASVKVSCKASGYTFTDFYMNWVRQAPGQGLEWIGDANPNNGGTTHNPRFKGRATLTVDTSTSTAYMELRSLRSDDTAVYYCARGGLPGDFDYWGQGTTVTVSS VL: DIQMTQSPSSVSASVGDRVTITCKASEDIYNRLAWYQQKPGKAPKLLISGVTSLETGVPSRFSGSGSGKDFTLTISSLQPEDFATYYCQQYWSFPWTFGGGTKVEIKR			binds
310P3C5-z9 humanized antibody (antibody, human IgG1, kappa, V domains shown, HU-VH1-1 with HU-VL1-3; human IgG1) VH: QVQLVQSGAEVKKPGASVKVSCKASGYTFTDFYMNWVRQAPGQGLEWMGDANPNNGGTTHNPRFKGRVTMTTDTSTSTAYMELRSLRSDDTAVYYCARGGLPGDFDYWGQGTTVTVSS VL: DIQMTQSPSSVSASVGDRVTITCKASEDIYNRLAWYQQKPGKAPKLLISGVTSLETGVPSRFSGSGSGKDFTLTISSLQPEDFATYYCQQYWSFPWTFGGGTKVEIKR			binds
310P3C5-z1 humanized antibody (antibody, human IgG1, kappa, V domains shown, HU-VH1-1 with HU-VL1-1; human IgG1) VH: QVQLVQSGAEVKKPGASVKVSCKASGYTFTDFYMNWVRQAPGQGLEWMGDANPNNGGTTHNPRFKGRVTMTTDTSTSTAYMELRSLRSDDTAVYYCARGGLPGDFDYWGQGTTVTVSS VL: DIQMTQSPSSVSASVGDRVTITCKASEDIYNRLAWYQQKPGKAPKLLIYGVTSLETGVPSRFSGSGSGTDFTLTISSLQPEDFATYYCQQYWSFPWTFGGGTKVEIKR			binds
310P3C5-z10 humanized antibody (antibody, human IgG1, kappa, V domains shown, HU-VH1-2 with HU-VL1-3; human IgG1) VH: QVQLVQSGAEVKKPGASVKVSCKASGYTFTDFYMNWVRQAPGQGLEWIGDANPNNGGTTHNPRFKGRATMTTDTSTSTAYMELRSLRSDDTAVYYCARGGLPGDFDYWGQGTTVTVSS VL: DIQMTQSPSSVSASVGDRVTITCKASEDIYNRLAWYQQKPGKAPKLLISGVTSLETGVPSRFSGSGSGKDFTLTISSLQPEDFATYYCQQYWSFPWTFGGGTKVEIKR			binds
310P3C5-z15p12 PTM removed humanized antibody (antibody, V domains shown, variable regions fused to the constant region of human IgG1) VH: QVQLVQSGAEVKKPGASVKVSCKASGYTFTDFYMNWVKQAPGQGLEWIGDANPNFGGTTHNPRFKGRATLTVDKSASTAYMELRSLRSEDTAVYYCARGGLPGDFDYWGQGTTVTVSS VL: DIQMTQSPSSLSASVGDRVTITCKASEDIYNRLAWYQQKPGKAPKLLISGVTSLETGVPSRFSGSGSGTDFTFTISSLQPEDIATYYCQQYWSFPWTFGGGTKVEIK	binds	binds	
